The chains are these.
B1: Hat2, full-length, yeast (natural protein)
chain: MENQEKPLSVDEEYDLWKSNVPLMYDFVSETRLTWPSLTVQWLPTPVQELDGGFIKQELIIGTHTSGEEENYLKFAEINLPKEILSNEDPQEEAGEEYQSSLPAPRSNIRITAKYEHEEEITRARYMPQDPNIVATINGQGTVFLYSRSEGLQSTLKFHKDNGYALSFSTLVKGRLLSGSDDHTVALWEVGSGGDPTKPVRTWNDLHSDIINDNKWHNFNKDLFGTVSEDSLLKINDVRANNTTIDTVKCPQPFNTLAFSHHSSNLLAAAGMDSYVYLYDLRNMKEPLHHMSGHEDAVNNLEFSTHVDGVVVSSGSDNRLMMWDLKQIGAEQTPDDAEDGVPELIMVHAGHRSSVNDFDLNPQIPWLVASAEEENILQVWKCSHSLPIVGGPPKVNKDIIS
B2: BRIL-fused Hat1ΔC (yeast Hat1 residues 1–320) (enzyme, UniProt Q12341 1-320, looked up)
chain: MSANDFKPETWTSSANEALRVSIVGENAVQFSPLFTYPIYGDSEKIYGYKDLIIHLAFDSVTFKPYVNVKYSAKLGDDNIVDVEKKLLSFLPKDDVIVRDEAKWVDCFAEERKTHNLSDVFEKVSEYSLNGEEFVVYKSSLVDDFARRMHRRVQIFSLLFIEAANYIDETDPSWQIYWLLNKKTKELIGFVTTYKYWHYLGAKSFDEDIDKKFRAKISQFLIFPPYQNKGHGSCLYEAIIQSWLEDKSITEITVEDPNEAFDDLRDRNDIQRLRKLGYDAVFQKHSDLSDEFLESSRKSLKLEERQFNRLVEMLLLLNNS

The target of one experiment is histone H4(7–102), yeast (yeast, UniProt P02309 8-103). Nature of the experiment: crystal structure.
The experiment “Hat2, full-length, yeast” deals with B1. Description: crystal structure.

Regarding B1, the binding result with histone H4(7–102), yeast is recorded as “binds”.

Turning to B2, the binding result with Hat2, full-length, yeast is on record as “binds”; in the experiment with histone H4(7–102), yeast, “binds”.

The values are drawn from PMC9067401 (Genes & Development, 2022).
